The values below come from publication PMC9912261.

For series [1], the system named is Lys1 (position 1, -----K-----). The experiment in a line: NMR. The following applies: ambient (SI general details say 1H NMR spectra were recorded at ambient temperature); none stated; pH adjusted with HCl/NaOH; free small peptide derivative in solution.
In series [2] the test system is Lys1 (position 1, -----KG----). The series can be described thus: NMR. Conditions: ambient (SI general details say 1H NMR spectra were recorded at ambient temperature); none stated; pH adjusted with HCl/NaOH; free small peptide derivative in solution.

As for “Ac-Lys-SH (N-acetyl-lysine thioacid) (synthetic)”, the pKa result in series [1] is reported as “approximately 10.8”.
Same read-out and setting: under “Ac-Lys-OH (N-alpha-acetyl-lysine) (synthetic)” stands “approximately 10.8”.
For the substance “Ac-Lys-Gly-SH (N-acetyl-lysyl-glycine thioacid) (synthetic)”, in series [2], the pKa entry is recorded as “approximately 10.8”.
Take “Ac-Lys-CN (N-acetyl-lysine nitrile) (synthetic)”: the pKa result in series [1] was “approximately 10.4”.
